# According to patent US20060257852A1 (priority 2003, published 2006):
# Tests used:
# [1] = biological target: nSh[change], Spike without transmembrane and cytoplasmic domains, with histidine tag (SARS coronavirus (Frankfurt isolate)) (UniProt P59594); assay: self-association; non-heated SDS-PAGE and western blot
# [2] = biological target: nSh[change], Spike without transmembrane and cytoplasmic domains, with histidine tag (SARS coronavirus (Frankfurt isolate)) (UniProt P59594); assay: self-association; western blot of cell lysate
substance,measurement,setting,value
"nSh[change], Spike without transmembrane and cytoplasmic domains, with histidine tag (from UniProt P59594 14-1195)",efficiency of oligomerization,[1],< 10%
same,frequency of monomeric form,[2],90%
same,frequency of oligomeric form,[2],10%
